Target: aflibercept (Eylea) (human)
Assay: SEC; Superdex 200 Increase 10/300 GL, aflibercept diluted in PBS to 8 mg/ml, 77 ul injected, 25 °C; samples stored 0, 7 or 28 days

aflibercept (Eylea) (Fc fusion), sequence (chain): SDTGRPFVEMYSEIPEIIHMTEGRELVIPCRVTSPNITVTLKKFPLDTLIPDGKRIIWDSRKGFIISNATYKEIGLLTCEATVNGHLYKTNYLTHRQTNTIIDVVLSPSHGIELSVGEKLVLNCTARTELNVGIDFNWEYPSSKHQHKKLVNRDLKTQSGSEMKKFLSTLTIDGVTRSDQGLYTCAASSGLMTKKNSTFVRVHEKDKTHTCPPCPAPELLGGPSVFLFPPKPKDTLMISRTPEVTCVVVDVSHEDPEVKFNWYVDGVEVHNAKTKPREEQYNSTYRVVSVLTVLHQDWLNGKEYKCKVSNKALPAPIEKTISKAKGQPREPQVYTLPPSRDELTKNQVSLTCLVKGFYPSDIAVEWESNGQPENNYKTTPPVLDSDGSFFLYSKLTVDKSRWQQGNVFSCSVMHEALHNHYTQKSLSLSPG

stoichiometry N: 2
Substance: aflibercept (Eylea) (Fc fusion)

Reference: paper PMC5794981
